Reference: patent publication US20260116991A1 (HAINAN SIMCERE ZAIMING PHARMACEUTICAL, published 2026)

Tests used:
[1] = target: T1, GPC3 endogenously expressed on HepG2 cells (UniProt P51654 25-554); test: FACS on HepG2 cells;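 note: flow cytometric binding of chimeric antibodies to cells, read as mean fluorescence intensity, EC50 obtained by curve fitting of the MFI data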
T1 construct: whole, on cells
Protocol: (§1) The desired cells were expanded to a logarithmic growth phase in a T-75 cell culture flask, the medium was removed by pipetting, and the cells were washed twice with a PBS buffer, and digested with trypsin. Then a complete medium was added to stop the digestion, and the cells were blown into a single cell suspension. After counting, the cells were centrifuged, and the cell pellet was resuspended with an FACS buffer (PBS+2% fetal bovine serum) to 2×10⁶ cells/mL. The cell resuspension solution was added to a 96-well FACS reaction plate at 50 μl/well, and a chimeric antibody sample to be tested was added at 50 μl/well for incubation at 4° C. for 1 h. […] After the plate was centrifuged and washed 3 times with a PBS buffer, 100 μl of the resulting solution was assayed and analyzed by FACS (FACS Canto™, purchased from BD Biosciences). Data analysis was performed by software (FlowJo) to obtain the mean fluorescence intensity (MFI) of the cells. Then, analysis was performed by software (GraphPad Prism8), data were fitted, and EC₅₀ values were calculated.

[2] = target: T2, human GPC3 on CHO-K1-human GPC3 cells (clone CHOK1-hGPC3.2B5) (human, UniProt P51654 25-554); test: FACS on CHOK1-hGPC3.2B5 cells;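 note: flow cytometry binding of chimeric antibodies to the cells, read out as mean fluorescence intensity, with the half-maximal concentration derived by curve fitting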
T2 construct: whole, on cells; Stably transfected CHO-K1 clone 2B5
Protocol: as §1

human GPC3-His protein [3] = target: T3, human GPC3-His protein (human, UniProt P51654 25-559); test: ELISA, coated human GPC3, antibody 1 nM;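 note: antigen coated at 1 µg/mL on 96-well plates, antibody bound for 2 h at 37 °C, detected with HRP-labeled secondary antibody and TMB, absorbance read at 450 nm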
T3 construct: Bought protein; also called human GPC3 protein; not shown: His tag

human GPC3-His protein [4] = target: T3, human GPC3-His protein; test: ELISA, coated human GPC3, antibody 10 nM;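 note: plate coated with antigen at 1 µg/mL, antibodies bound 2 h at 37 °C, detected via HRP-conjugated secondary antibody and TMB substrate, absorbance read after acid stop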
Protocol: (§2) The specific method is described as follows: The antigen protein was diluted with PBS to a final concentration of 1 μg/mL, and the diluent was added to a 96-well ELISA plate at 50 μL/well. The plate was sealed with a plastic film and incubated at 4° C. overnight, washed twice with PBS the next day, and a blocking solution [PBS+2% (w/w) BSA] was added for blocking at room temperature for 2 h. […] After incubation at 37° C. for 2 h, the plate was washed 3 times with PBS. A horseradish peroxidase (HRP)-labeled secondary antibody (purchased from Merck, Cat. No. AP113P) was added for incubation at 37° C. for 1 h, and the plate was washed 5 times with PBS. A TMB substrate was added at 50 μL/well for incubation at room temperature for 10 min, then a stop solution (1.0M HCl) was added at 50 μL/well. An ELISA plate reader (Multimode Plate Reader, EnSight, purchased from Perkin Elmer) was used to read OD_{450 nm} values, with results as shown in Table 4 to Table 6, FIG. 1A, FIG. 1B, and FIG. 1C.

human GPC3-His protein [5] = target: T3, human GPC3-His protein; test: ELISA, coated human GPC3, antibody 0.1 nM;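 note: antigen coated on 96-well plates at 1 µg/mL, antibody bound 2 h at 37 °C, detected with HRP-labeled secondary antibody and TMB substrate, acid-stopped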
Protocol: as §2

human GPC3-His protein [6] = target: T3, human GPC3-His protein; test: ELISA, coated human GPC3, antibody 100 nM;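 note: antibodies bound to antigen-coated 96-well plates (1 µg/mL), 2 h at 37 °C, detected with HRP-labelled secondary antibody and TMB substrate, absorbance read at 450 nm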
Protocol: as §2

human GPC3-His protein [7] = target: T3, human GPC3-His protein; test: ELISA, coated human GPC3, antibody 0.01 nM;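 note: Plate-bound antigen coated at 1 µg/mL, antibody incubated 2 h at 37 °C, binding detected by HRP-conjugated secondary antibody with TMB substrate, read as absorbance at 450 nm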
Protocol: as §2

human GPC3-His protein [8] = target: T3, human GPC3-His protein; test: ELISA, coated human GPC3, antibody 0.001 nM
human GPC3-His protein [9] = target: T3, human GPC3-His protein; test: ELISA, coated human GPC3, antibody 0.0001 nM

Row | Binder | EC50 [1] | Max MFI [1] | EC50 [2] | Max MFI [2] | OD450 nm (human GPC3-His protein [3]) | OD450 nm (human GPC3-His protein [4]) | OD450 nm (human GPC3-His protein [5]) | OD450 nm (human GPC3-His protein [6]) | OD450 nm (human GPC3-His protein [7]) | OD450 nm (human GPC3-His protein [8]) | OD450 nm (human GPC3-His protein [9])
1 | F2.169.2 human-murine chimeric antibody (antibody, human IgG1, kappa, V domains shown) VH: EVQLVETGGGLVQPKGSLKLSCAASGFSFNTNAMNWVRQAPGKGLEWVARIRSKSNNYATYYADSVKDRFTISRDDSQSMLYLQMNNLKTEDTAMYYCVRDGYYVLFAYWGQGTLVTVSA VL: DVLMTQTPLSLPVSLGDQASISCRFSQSIVNSNGNTYLEWFLQKPGQSPKLLIYKVSNRFSGVPDRFSGSGSGTDFTLKISRVEAEDLGVYYCFQGSHVPFTFGTGTKLEIKR | 0.65 nM | 3980 MFI | 1.06 nM | 17300 MFI | 2.24 OD450 | 2.52 OD450 | 1.25 OD450 | 2.43 OD450 | 0.27 OD450 | 0.11 OD450 | 0.1 OD450
2 | F2.23.8 human-murine chimeric antibody (antibody, human IgG1, kappa, V domains shown) VH: QVQLQQSGAELVRPGASVKLSCKASGYTFTDYEMHWVKQTPVHGLEWFGAIDPETGGTAYNQKFRAKATLTADKSSSTAYMELRSLTSEDSAVYYCTRFYSFAYWGQGTLVTVSA VL: DVVMTQTPLSLPVSLGDQASISCRSSQSLVHSNGNTYLQWYLQKPGQSPKLLIYKVSNRFSGVPDRFSGSGSGTDFTLKITRVEAEDLGVYFCSQSTHVPYTFGSGTKLEIKR | 1.64 nM | 11300 MFI | 1.48 nM | 23200 MFI | 2.16 OD450 | 2.35 OD450 | 1.28 OD450 | 2.51 OD450 | 0.29 OD450 | 0.12 OD450 | 0.1 OD450
3 | F2.39.2 human-murine chimeric antibody (antibody, human IgG1, kappa, V domains shown) VH: QVQLQQSGAELVRPGASVKVSCKASGYTFTDYEMHWMKQTPVHGLEWIGANEPETGRSAYDQKFKGKATLTADKSSSTAYMELRSLTSEDSAVYYCTRFYSFAYWGQGTLVTVSA VL: DVVMTQTPLSLPVSLGDQASISCRSSQGLVHNNGNTYLHWYLQKPGQSPKLLIYKVSNRFSGVPDRFSGSGSGTDFTLKISRVEAEDLGVYFCSQNTHVPPTFGGGTKLEIKR | 0.95 nM | 12700 MFI | 1 nM | 26500 MFI | 2.21 OD450 | 2.34 OD450 | 1.33 OD450 | 2.3 OD450 | 0.34 OD450 | 0.12 OD450 | 0.1 OD450
4 | F2.92.1 human-murine chimeric antibody (antibody, human IgG1, kappa, V domains shown) VH: QVQLQQSGAELVRPGASVKLSCKASGYIFSDYEIHWVKQTPVHGLECIGAVDPETGGTAYNQKFKGKATLTADKSSSTAYMELRSLTSEDSAVYFCTRFYSFAYWGQGTLVTVST VL: DVVMTQTPLSLPVSLGDQGSISCRSSQSLVHSNGNTYLQWYLQKPGQSPKLLIYKVSNRFSGVPDRFSGSGSGTDFTLKISRVEAEDLGVYFCCQSTHVLPTFGGGTKLEIKR | 0.92 nM | 14000 MFI | 0.92 nM | 29400 MFI | 2.24 OD450 | 2.23 OD450 | 1.23 OD450 | 2.45 OD450 | 0.32 OD450 | 0.12 OD450 | 0.11 OD450
5 | F2.152.3 human-murine chimeric antibody (antibody, human IgG1, kappa, V domains shown) VH: EVQLQQSGPELVKPGASVKMSCKASGYTFTDYYMTWVKQSHGKSLEWIGRVNPRNGDTTYNQKFEGRATLTLDKSLSTAFMQLNSLTSEDSAVYYCINSKGHFDYWGQGTTLTVSS VL: DVLMTQTPLSLPVSLGDQASISCRSSQSIVHSNGNTYLEWFLQKPGQSPKSLIYKVSNRFSGVPDRFSGSGSGTDFTLKISRVEAEDLGVYYCFQGSHVPPTFGAGTKLELKR | 0.23 nM | 4490 MFI | 0.73 nM | 2830 MFI | 2.28 OD450 | 2.43 OD450 | 1.45 OD450 | 2.43 OD450 | 0.32 OD450 | 0.13 OD450 | 0.1 OD450
6 | F3.38.7 human-murine chimeric antibody (antibody, human IgG1, kappa, V domains shown) VH: QVQLQQSGAELVRPGASVKLSCKASGYTFTDYEIHWVKQTPVLGLEWIGAIDPKTGNTAYNQKFMGKATLTADKSSTTAYMDLRSLTSEDSAVYYCTRYFSFAYWGQGTLVTVSA VL: DVLMTQTPLSLPVSLGDQASISCRSSQTFVHSNGNTYLQWYLQKPGQSPKLLIYKVSNRFSGVPDRFSGSGSGTDFTLKISRVEAEDLGVYYCFQGSHVPYTFGSGTKLEIKR | 1.2 nM | 4980 MFI | 0.85 nM | 16200 MFI | 2.18 OD450 | 2.44 OD450 | 1.62 OD450 | 2.48 OD450 | 0.38 OD450 | 0.13 OD450 | 0.09 OD450
7 | F3.54.12 human-murine chimeric antibody (antibody, human IgG1, kappa, V domains shown) VH: QVQLQQSGAELVRPGASVKLSCKASGYTFTDYEMHWVKQTPVHGLEWIGAIDPETGNTAYIQKFKGKATLTTDKSSSTAYMELRSLTSEDSAVYYCTRFYSYSHWGQGTTLTVSS VL: DVVMTQTPLSLPVSLGDQASISCRSSQSLVHSNGNTYLHWYLQKPGQSPKLLIYKVSNRFSGVPDRFSGSSSGTDFTLKISRVEAEDLGVYFCSQNTHVPPTFGGGTKLEIKR | 0.83 nM | 4460 MFI | 0.72 nM | 15000 MFI | 2.29 OD450 | 2.41 OD450 | 1.58 OD450 | 2.44 OD450 | 0.48 OD450 | 0.15 OD450 | 0.13 OD450
8 | F3.81.19 human-murine chimeric antibody (antibody, human IgG1, kappa, V domains shown) VH: QVQLQQSGAELVRPGASVKLSCKASGYTFTDYEMHWVKQTPVHGLEWIGTIDPETGNTAYNQKFKGKATLTADKSSSTAYMELRSLTSEDSAVYYCTRPYSLTYWGQGTLVTVSA VL: DVLLTQTPLSLPVSLGDQASISCRSSQSFVHSNGDTYLQWYLQKPGQSPKLLIYKVSNRFSGVPDRFSGSGSGTDFTLKISRVEAEDLGVYYCFQGSHVPYTFGSGTKLEIKR | 2.72 nM | 5740 MFI | 2.58 nM | 14100 MFI | 2.04 OD450 | 2.49 OD450 | 0.87 OD450 | 2.45 OD450 | 0.19 OD450 | 0.28 OD450 | 0.1 OD450
9 | F4.13.7 human-murine chimeric antibody (antibody, human IgG1, kappa, V domains shown) VH: QVQLQQPGAELVKPGASVKLSCKASGYTFTNNWVHWVKQRPGQGLEWTGMIHPDSGSTIYNEKFQSKATLTVDKSSSTAYMQLSSLTSEDSAVYYCARGYYDSSSYYAMDYWGQGTSVTVSS VL: NIQMTQTTSSLSASLGDRVTISCSASQGIFNYLNWYQQKPDGTVKLLIYYTSSLHSGVPSRFSGSGSGTDYSLTISNLEPEDIATYYCQQYSKLPWTFGGGTKLEIKR | 0.58 nM | 1150 MFI | 1.1 nM | 1710 MFI | 2.28 OD450 | 2.27 OD450 | 1.27 OD450 | 2.3 OD450 | 0.3 OD450 | 0.12 OD450 | 0.1 OD450
10 | F4.18.4 human-murine chimeric antibody (antibody, human IgG1, kappa, V domains shown) VH: QVQLHQSGAEMAKPGASVNLSCKTSGFTFTDYGISWVKQRTRQGLEWIGDIYPRHINIYYNEKFKDKATLTADRSSSTAYMELRSMTSEDSAVYFCARRGTTGRGALDYWGQGTSLTVSS VL: DILLTQSPAILSVSPGERVSFSCRASQSIGTSIHWYQQRTNGSPRLLIKYAFESISGIPSRFGGSGSRTDFTLTINSVESEDIADYYCQQTYNWPYTFGGGTKLEIKR | 0.92 nM | 1390 MFI | 0.89 nM | 2370 MFI | 1.41 OD450 | 1.18 OD450 | 0.83 OD450 | 1.02 OD450 | 0.26 OD450 | 0.15 OD450 | 0.16 OD450
11 | F4.21.16 human-murine chimeric antibody (antibody, human IgG1, kappa, V domains shown) VH: DVQLQESGPGLVKPSQSLSLTCSVTGYSITSGYYWNWIRQFPGNKLEWMGYISYDVTVNYNPSLKNRISITRDTSKNQFFLKLNSVTTEDTATYYCATITSVASMDHWGQGTSVTVSS VL: DILMTQTPLSLPVSLGDQASISCRSSQNIVHRNGNTYLEWYLQKPGQSPKLLLYKVSNRFSGVPDRFSGSGSGTDFTLKISRVEAEDLGIYYCFQGSHFPFTFGSGTKLEIKR | 2.31 nM | 1710 MFI | 3.25 nM | 2170 MFI | 1.37 OD450 | 1.14 OD450 | 0.46 OD450 | 0.52 OD450 | 0.15 OD450 | 0.1 OD450 | 0.1 OD450
12 | F4.26.1 human-murine chimeric antibody (antibody, human IgG1, kappa, V domains shown) VH: QVQLKQSGPGLVQPSQSLSITCTVSGFSLTSYGVHWVRQSPGKGLEWLGVIWSSGNTDYNAVLISRLSIKKDDSKSQVFFKMNSPQVDDSAIYYCGRNGGWLLRGFMDFWGQGTSVTVSS VL: DVVMTQTPLSLPVSLGDQASISCRSSQSLLHSNGNTYLHWYLQRSGQSPNLLIYKVSNRFSGVPDRFSGGGSGTDFTLKISRVEAEDLGIYFCSQSTHVPWTFGGGTKLEIKR | 0.85 nM | 1600 MFI | 1.21 nM | 2810 MFI | 1.25 OD450 | 1.43 OD450 | 0.64 OD450 | 1 OD450 | 0.18 OD450 | 0.11 OD450 | 0.09 OD450
